The target of experiment [1] is T1, recombinant YFV E protein (soluble E, sE; YFV Asibi strain) (Yellow fever virus, Asibi strain, UniProt Q6DV88 286-678).
T1 construct: also called YFV E antigen; YFV E monomer
Put plainly: BLI monovalent (IgG on tip).

Experiment [2] addresses T2, recombinant YFV-17D DIII protein (Yellow fever virus, strain 17D, UniProt P03314 578-682).
T2 construct: also called domain III
T2 sequence: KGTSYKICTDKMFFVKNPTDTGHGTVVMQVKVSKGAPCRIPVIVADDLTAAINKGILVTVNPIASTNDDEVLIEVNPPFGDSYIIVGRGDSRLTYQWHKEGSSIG
Put plainly: BLI, recombinant YFV-17D DIII protein. On the technique in general: BLI is a label-free optical method that tracks binding on a fibre tip over time.

T1 sequence (Q6DV88 286-678): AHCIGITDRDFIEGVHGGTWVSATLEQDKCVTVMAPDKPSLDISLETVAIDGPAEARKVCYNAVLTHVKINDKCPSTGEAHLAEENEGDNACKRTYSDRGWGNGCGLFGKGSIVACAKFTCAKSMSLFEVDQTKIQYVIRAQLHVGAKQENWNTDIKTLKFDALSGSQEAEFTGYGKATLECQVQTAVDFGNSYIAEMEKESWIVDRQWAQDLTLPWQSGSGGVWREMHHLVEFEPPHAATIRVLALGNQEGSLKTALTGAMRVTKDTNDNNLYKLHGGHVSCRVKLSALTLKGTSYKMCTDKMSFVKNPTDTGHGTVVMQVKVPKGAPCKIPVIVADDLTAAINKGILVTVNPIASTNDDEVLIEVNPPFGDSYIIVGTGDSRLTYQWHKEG

B1: ADI-45075 (antibody, V domains shown)
VH: EVQLLESGGGLVQPGGSLRLSCAASGFTFSSYAMSWVRQAPGKGLEWVSVISDSGGSTYYADSVKGRFTISRDNSKNTLYLQMNSLRAEDTAVYYCAKDLRGVGGWYYFDYWGQGTLVTVSS
VL: EIVLTQSPSSLSASVGDRVTITCQASQDISNFLNWYQQKPGKAPKLLIYDASSLETGVPSRFSGSGSGTDFTFTISSLQPEDIATYYCQQYDNLPLTFGGGTKLEIK
notes: full-length IgG; also called Antibody Number 45
A word on the Kd: it is the concentration at which binding is half-saturated. For the molecule B1, in experiment [1], the Kd worked out at 0.0261 µM. Moreover, in experiment [2], the binding result is on record as “binds”.

B2: ADI-45113 (antibody, V domains shown)
VH: QVQLVQSGGGLVQPGGSLRLSCAASGFTFSSYAMSWVRQAPGKGLEWVSAISGSGGSTYYADSVKGRFTISRDNSKNTLHLQMSSLRAEDTAVYYCAKDPKYSSGWWAFDYWGQGTLVTVSS
VL: EIVMTQSPATLSVSPGERATLSCRASQSVSSNLAWYQQKPGQAPRLLIYGASTRATGIPARFSGSGSGTEFTLTISSLQSEDFALYYCQQYDDWPLFGQGTRLEIK
notes: full-length IgG; also called Antibody Number 20
Regarding B2, the Kd in experiment [1] is 0.253 µM. Besides, the binding result in experiment [2] is recorded as “binds”.

Values taken from patent US20240218054A1 (MABLOC, published 2024).
